Source: patent US20150299312A1 (TECHNISCHE UNIVERSIT T DRESDEN, published 2015)

T1: P-selectin glycoprotein ligand 1 (PSGL-1) with the O-bound glycan structure 6-sulfo N-acetyl lactosamine … (human, UniProt Q14242 42-412)
T1 construct: whole, on cells; also called slan
T1 sequence (looked up): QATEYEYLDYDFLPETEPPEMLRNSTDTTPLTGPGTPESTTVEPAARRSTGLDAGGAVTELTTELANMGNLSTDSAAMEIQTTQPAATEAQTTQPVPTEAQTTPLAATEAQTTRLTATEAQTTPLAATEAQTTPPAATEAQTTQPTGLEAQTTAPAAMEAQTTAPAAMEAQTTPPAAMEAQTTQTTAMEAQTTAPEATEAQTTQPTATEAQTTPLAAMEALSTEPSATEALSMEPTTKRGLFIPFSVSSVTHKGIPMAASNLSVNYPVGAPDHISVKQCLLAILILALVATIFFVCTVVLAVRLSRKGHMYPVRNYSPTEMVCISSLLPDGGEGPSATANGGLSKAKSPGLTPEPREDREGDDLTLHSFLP


Biological target: T1, P-selectin glycoprotein ligand 1 …
Experiment: affinity to slan-DCs; method not stated

| Kd [pM] | fold higher affinity than DD2 or M-DC8 [fold] | Binder |
| --- | --- | --- |
| 0.4 | ~25 | monoclonal IgM antibody MB4 (antibody, V domains shown, also called anti-slan antibody MB4) VH: EVKLQESGPGLVQPSQSLSITCTVSGFSLTTYGVHWIRQSPGKGLEWLGVIWSGGGTDFNVAFMSRLSINKDNSKSQIFFKMNSLQANDTAIYYCARRTTNDGNYAFAYWGQGTLVTVS VL: DIVMTQSPLSLPVSLGDQASISCRSSQNILHSDGSTYLEWYLQKPGQSPKLLIYKVSNRFSGVPDRFSGSGSGTDFTLKISRVEAEDLGVYYCFQGSHVPWTFGGGTKLEIKR |
| 0.4 | ~25 | monoclonal IgM antibody MB6 (antibody, V domains shown, also called anti-slan antibody MB6) VH: EVKLEQSGPGLVQLSQSLSITCTVSGFSLTTYGVHWIRQSPGKGLEWLGVIWSGGGTDFNVAFISRLSINKDNSKSQVFFKMNSLQANDTAIYYCARRTTNDGNYAFAYWGQGTLVTVS VL: DIVMTQSPLSLPVSLGDQASISCRSSQNILHSDGNTYLEWYLQKPGQSPKLLIYKVSNRFSGVPDRFSGSGSGTDFTLKISRVEAEDLGVYYCFQGSHVPWTFGGGTKLEIKR |
